Experimental data taken from patent publication US20220403048A1, “BINDING MOLECULES TO ARGINASE II [ARG2]” (Cancer Research Technology Limited, priority 2019, published 2022).

T1: monomeric ARG2 (Homo sapiens, UniProt P78540, E275Q)
T1 construct: human ARG2 (aa23-354); His10 (C); made in house; host or cells: E. coli
T1 sequence (P78540 23-354 E275Q): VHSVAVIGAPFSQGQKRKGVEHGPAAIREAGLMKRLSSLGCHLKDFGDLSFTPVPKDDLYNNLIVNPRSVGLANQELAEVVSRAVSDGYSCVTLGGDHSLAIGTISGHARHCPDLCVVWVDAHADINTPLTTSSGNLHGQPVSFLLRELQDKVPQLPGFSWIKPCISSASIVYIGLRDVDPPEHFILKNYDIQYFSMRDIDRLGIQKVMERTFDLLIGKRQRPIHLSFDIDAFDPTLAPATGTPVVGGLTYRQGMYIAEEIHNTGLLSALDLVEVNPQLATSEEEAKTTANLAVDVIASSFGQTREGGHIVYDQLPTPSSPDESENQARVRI

T2: THP-1 lysate derived human trimeric ARG2 (Homo sapiens, UniProt P78540)
T2 construct: expressed in transfected cells; host or cells: THP-1 cells overexpressing human ARG2 (cell lysate)
T2 sequence (P78540 23-354): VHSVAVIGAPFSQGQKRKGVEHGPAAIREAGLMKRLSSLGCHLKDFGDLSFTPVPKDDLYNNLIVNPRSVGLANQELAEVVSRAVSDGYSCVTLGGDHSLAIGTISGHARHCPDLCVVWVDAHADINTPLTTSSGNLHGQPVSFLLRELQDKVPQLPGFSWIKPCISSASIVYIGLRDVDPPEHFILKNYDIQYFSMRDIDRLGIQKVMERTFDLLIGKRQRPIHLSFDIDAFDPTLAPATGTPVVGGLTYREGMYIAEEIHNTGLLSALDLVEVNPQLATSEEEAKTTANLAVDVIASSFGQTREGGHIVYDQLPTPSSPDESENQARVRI


Legend:
monomeric ARG2 = target: T1, monomeric ARG2; assay: Human monomeric ARG2 enzyme inhibition assay; format: biochemical; conditions: purified recombinant human IgG1, FIG. 5
Procedure: ARG2 specific recombinant IgG1 were screened for their ability to inhibit enzymatic activity of monomeric ARG2. In this assay, the ability of ARG2 specific recombinant IgG1 to inhibit the enzymatic activity of monomeric ARG2 was determined by measuring the production of urea, the product of L-arginine turnover by monomeric ARG2.
IC50 values were determined by testing a dilution series of the ARG2 specific recombinant IgG1, prepared in TBS.
10 μl of ARG2 specific recombinant IgG1 (dilution series) were added to a Greiner Bio-One® 384 well assay plate (Greiner Bio-one, UK; cat: 781901). […]
Urea was detected by the simultaneous addition of equal volumes of O-Phthaldialdehyde (1.5 mM O-Phthaldialdehyde, 7% H2SO4, 0.03% Brij L23) and N-(1-Napthyl)ethylenediamine (1.66 mM N-(1-Napthyl)ethylenediamine, 81 mM Boric acid, 21% H2SO4, 0.03% Brij L23) followed by an 18 minute incubation at room temperature before the colorimetric product was quantified on the Pherastar by measuring absorbance at 505 nm.
ARG2 specific recombinant IgG1 were tested alongside N-Hydroxyl-L-Arginine (a small molecule competitive inhibitor of ARG2) as a positive control and NIP228 (irrelevant isotype control antibody) as a negative control. Data points were plotted and IC50 values determined using a four parameter fit in GraphPad Prism (FIG. 5).

[1] = target: T2, THP-1 lysate derived human trimeric ARG2; assay: THP-1 lysate derived human ARG2 enzyme inhibition assay; format: biochemical; conditions: recombinant human IgG1, lysate without plasma (section 3.3), FIG. 13; read-out: THP-1 lysate ARG2 EIA IC50
Procedure: Anti-ARG2 IgGs were tested for their ability to inhibit mammalian expressed human ARG2 produced in transfected THP-1 cells. To do this cell lysates were prepared from THP-1 cells overexpressing human ARG2 and from wild type THP-1 cells. 350 million cells were suspended in 3 ml tris buffered saline (25 mM Tris+150 mM sodium chloride in dH2O, pH 7.4) and cell lysates prepared by passing through a 26G needle 20 times. A BCA assay was used to measure the protein concentration in the lysate. […] Antibodies were tested alongside N-Hydroxyl-L-Arginine (a small molecule competitive inhibitor of ARG2) as a positive control and CEA6 (irrelevant isotype control antibody) as a negative control. Data points were plotted and IC50 values determined using a four parameter fit in GraphPad Prism (FIG. 11, Table 13).
Anti-ARG2 IgGs were tested for their ability to inhibit to mammalian expressed human ARG2 produced in transfected THP-1 cells. […] Urea detection reagents, O-Phthaldialdehyde (1.5 mM O-Phthaldialdehyde, 7% H2SO4, 0.03% Brij L23) and N-(1-Napthyl)ethylenediamine (1.66 mM N-(1-Napthyl)ethylenediamine, 81 mM Boric acid, 21% H2SO4, 0.03% Brij L23) were mixed 1:1 just prior to use and 80 μl/well were added, incubated for 1 hour at room temperature and absorbance at 505 nm was read on a Pherastar plate reader. […]

inhibition of the activity of human monomeric ARG2 (monomeric ARG2) | IC50 [1] | Molecule
inhibited | – | C0020065: anti-ARG2 antibody, alternate lead isolation clone, VH SEQ ID NO: 2, VL SEQ ID NO: 7 (antibody, listed as Homo sapiens, V domains shown, C0020065) VH: GVNLRESGGGVVQPGRSLRLSCAASGFTFSSYAMHWVRQAPGKGLEWVAVISYDGSNKYYVDSVKGRFTISRDNSKNTLYLQMNSLRAEDTAVYYCARDSSQLWFDYWGRGTLVTVSS VL: QSVVTQPPSVSGAPGQRVTISCTGSSSNIGTGYDVHWYQQLPGTAPKLLIYGNSNRPSGVPDRFSGSKSGTSASLAITGLQAEDEADYYCQSYDSSLSGSVVFGGGTQLTVL
– | 5.36 nM | C0021158: anti-ARG2 antibody, second generation lead, VH SEQ ID NO: 272, VL SEQ ID NO: 277 (antibody, listed as Homo sapiens, V domains shown, C0021158) VH: EVQLLESGGGLVQPGGSLRLSCAASGFTFRYEVAAWVRQAPGKGLEWVSAISGPIPKGYYADSVKGRFTISRDNSKNTLYLQMNSLRAEDTAVYYCARLRADLGLYMDLWGRGTLVTVPS VL: QSVLTQPPSVSAAPGQKVTISCSGSSSNIGNHYVSWYQQLPGTAPKLLIYDNSERTAGVPDRFSGSKSGTSATLGITGLQTGDEADYYCGTWDELTSNLVFGGGTKLTVL
